Laboratory results as given in article PMC12363175.

Biological target: CX1 S ectodomain with stabilizing mutations
Assay: AUC

Sequence of peptidase domain (PD) of hACE2 (Q9BYF1 19-615): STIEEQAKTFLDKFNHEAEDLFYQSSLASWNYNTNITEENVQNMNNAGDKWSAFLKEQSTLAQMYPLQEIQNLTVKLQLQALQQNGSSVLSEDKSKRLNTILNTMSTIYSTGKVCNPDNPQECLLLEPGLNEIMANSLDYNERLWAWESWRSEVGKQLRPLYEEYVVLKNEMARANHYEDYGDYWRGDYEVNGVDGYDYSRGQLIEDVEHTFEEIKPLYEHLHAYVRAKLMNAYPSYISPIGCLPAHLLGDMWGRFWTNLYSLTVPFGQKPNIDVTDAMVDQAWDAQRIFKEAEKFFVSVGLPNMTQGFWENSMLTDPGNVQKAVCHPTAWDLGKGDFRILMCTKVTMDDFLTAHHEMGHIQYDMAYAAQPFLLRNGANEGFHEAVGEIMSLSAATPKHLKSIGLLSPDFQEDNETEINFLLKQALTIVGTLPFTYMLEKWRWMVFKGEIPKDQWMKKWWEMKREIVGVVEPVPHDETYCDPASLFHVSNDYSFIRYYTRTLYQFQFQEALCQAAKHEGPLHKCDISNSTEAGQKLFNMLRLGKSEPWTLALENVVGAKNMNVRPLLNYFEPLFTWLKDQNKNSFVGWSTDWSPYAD

Substance: peptidase domain (PD) of hACE2 (from UniProt Q9BYF1 19-615) (domain or fragment)
- stoichiometry N (hACE2 molecules per S trimer): 2
